Among the data in the NTF2 design screens of Basanta et al. (2020) are protease stability score values, retold here.

The series is described as follows: protease stability score; higher = more stable; yeast display proteolysis, trypsin and chymotrypsin.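 Also: log10 excess protease needed over predicted unfolded state with 0 meaning unfolded.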

With “DHRQQVRDIFKEMQDARRKGNEKTLQKLVDPNAKAEYGDKTYHGRENVAKMLLDEAKRVDHFEVHIKTFSIKNGTARVHADVVVKHDGQKRSTDVFYVFRDHNGQMLLVRARTQ”, the protease stability score is 1.38.

Regarding “DHRVEEVFRRYLEAFQDNNPEKAMRLVDPNAKLSVGDTTLDGREDIKKFVRTRHNEQRVKYEIKQIEVDGDKIRVVADLKNQHNGTPDRDTVKMSASVRNGKIKDLKQTTDK”, the protease stability score was -0.132.

The sequence “DHSDAEQVHRAIEENNFDELVDLADENVSVTIGDYTLHGREDFKHYQEVLKRQVDNVEFKTIDIQGDKIDRTVEATVNGRRYVARIVVKVKNGKIKSQKVHATDEKQNEQLRENLK” registered a protease stability score of -0.043.

“DHSEVTDVFRKLVKVLRTGDESTAAELFDEDVEFEIGDKTYKGREEAHDLLRQFQDMADHVQLNDVRVQGNKVHAEFRADVNGRELHFTQSAEVHNGKIKKVVIRFTNEEQYREIHS” displayed a protease stability score of 1.59.

Consider “DHSKHLTNVIKRMQRLFKHGNFSEVAKQADKDVEVRVGDKTYNGRDQYVDSQRKIEHQVDNADLKFQHVDNQGDKIDVIYEFVVVHNGRHEKTTEQAVLSLHNGRVRATKIHDS”, for which the protease stability score was -0.102.

In turn, “DHSQLEIVIEWVKALQEGDPDKAKKNMDKNVKLDIGDKRLEGRDEVRKEMETMKKSARFDLHIDSYNVHGDHAELRVTFRNDHNGRPKKDRNTIRATAHNGRITYLSVEHTG” displayed a protease stability score of 0.708.

Sequence “DHTAARIAKEIMENQDKGDEDRLRKLLDKDVRLKYGDKEIHGREHAARTLKRERRQIRIDRRIRHVEIQGDEVSIEFDMHVQHNGKPRDRKAVMVFRMQGDKLEEMTQDNTK” yielded a protease stability score of 0.191.

“DHTADRIIRNLMDALNQNDEDKAVKLMDENVRFRIGDKEYQGRERWKKLLQDWNKHASIRYTVDSMDRRGEKVHVKFELKVNINGNPVTVRVTVEFEIRNGKIKSAVYEMDPDDAKEVWS” yielded a protease stability score of 0.925.

“DHTELETLARRMVDAMRTGDPDKLAELADPNVKVTYGDKSVHGHEQFTKQMKEFVDQYDHVRVERLKIEGDKVHADLNAEHNGRSSRFIMLITVKNGRVKHLKFKNR” showed a protease stability score of 0.472.

“DHTEVKKQNEQVRKALTQGDPKTMKKMFDPNVKLQVGEKSYRGHKDLQKWAEEMHKRVDHARVDSVHARGNHVTVDVVFNINGREKRLTLRVSYHNGRINEVHMTDG” yielded a protease stability score of 0.745.

On to “DHTIDEVFKQFETAKNDNDPDQLKKNADPNVDYTVGDQFVEGREHAADDIRRRREQQRNEIRSLRHSVQGNDIDVSVDMEVEHNGKPSDFTQRIDVVAHNGKIKHQTAHQEG”, for which the protease stability score was -0.505.

Regarding “DHTKEARQVRRFVHALETGDPDRAASQLDKNAKVTVGDKRVHGRENVRTLMQEFIREADHFRLRDMRDDGEKFNLLIEFEVNGKRLRMHIDIVISNGTMKVVRFDPNVVKRMEN”, the protease stability score turned out to be 0.144.

In turn, “DHTKIARRLMEDLTDARRHNDPHHVKNLLDKDVKIRVGDKSVDGEEEATKQMIERQRRADHIEMRIKSVSTHNGQLRIIFDVREVHNGQEHTDREEVQFDNENGKVRMVNVQQK” returned a protease stability score of -0.056.

“DHTKQAETVARQMLEQLRDGNPEELKNMFDENVEADIGDTRYHGRESMVEFWQTILTRVDRNRLHIVDVQVQGNKIIVRVRVSFDRNGRQKEEEYVIVVRVNNGHYTADVVSLT” had a protease stability score of 0.772.

On to “DHTVLEKAATALKQGDTDKMNKLADENVKMKVGDKEFHGRQQVNTALKRIKEQVDHRSIRSIENRGNRVTIDANVVVNGKHVDVNFILVVHNGRLKMFQIRVTDPQVHRRLSEIMS”, for which the protease stability score was found to be 0.722.

In turn, “DKDAAQLFHQYLEAKKHNNEDQLRENMDPNVQWTIGDKVITGREEAAKRMVDENREQRVEISHMQVHDNNGHAVFRADVRYKHNGKPSRSRFVVRVQARNGKIHSVKVERHS” gave a protease stability score of 0.076.

For the sequence “DKDAARRFNEMLQQIHTGNEQEVSKLVDEDADVKVGEKDVHGREQIHSEVKKMRDELSYRVQVNEFDDRGDKIRFNIRVRKNTNGKPKTSRNNLTVVVHNGRIKEVKAESDG”, the protease stability score was 0.095.

In turn, “DKDAARRVQEMIRQQQTGNPTEVEEQADKDVEFKVGDKVVHGRRELKKEVETHKRESRLEVQKIEIKDHGDKAKLIIYFRVHENGEPRKRTVQVRAKYQNGKVKMIEVDSTK” showed a protease stability score of -0.006.

In turn, “DKDALRVFERFLEAVETNDPKQVQEQADPNAHFDIGDRTYHGMDEIATKMFEEQEKIHLSVQIRDVKDHGDKAVIKAEFSSERNGKPHSKTVRIEVQAHNGQMVKLVMTDDQ” had a protease stability score of -0.309.

In turn, “DKDAQKKATEFLTAWEQGNESQLQKLMDPNAKVEIGDKVIDGREDWNRWIRERLKRMRFEIKSVDVQVHGDNVDINIDARVNHNGKPDRMTAKFVMRVHNGRIKSMTQHNDK” gave a protease stability score of 1.29.

“DKDAVKRFEELLRALDTNNSEQVKDLLDKNVQFRVGDKVIHGMEEAVRRQIQHNNEIRVEKEIKSIDDHNGRIHVDMTREWEHNGQPRSEKVKFTIEMHNGRVQVDNQKVTS” registered a protease stability score of -0.098.

In the case of “DKDDFKEAEHILRTGDPDEWSKMVDPNARAEVGDEEIHGKEEFDRWMQKKKKRVDHEQVKSVDFHGDKWRVVLVFNVNGRQADVVMVMQVHNGRLVYQVVRFRDHQVKDVVRKRLS”, the protease stability score turned out to be 0.336.

Regarding “DKDDLRRMHQLVTRNNPQKFKQQADKDAKVQYGDKTVTGMTDAARQMVKFWRQADHIEVKHVDVNGDKLNVVMRMNVNGRNLHMVVYYVVSNGHVRSASVTFTDPHQQEEFEKNAS”, the protease stability score is 0.316.

“DKDDQKRFTDTATKILQHNNPEKMRELADKDARLVVGDRTYTGRRQIVRHMEHLFRRVDHVQIKHVDVRGDHVEIDAVLDYNGRKERMTFVFQAHNGRIKQVEVQTG” gave a protease stability score of 0.603.

Turning to “DKDERHRIAHRLNEAIRTGDPHQMLRLADKNVKVQIGEKDVRGKDAIDKYARDLRKKVDHIQLRSLDVQGEEITMTIVFNVNGRRETVVYHVDYHNGQVKRVMVRSK”, the protease stability score turned out to be 0.043.

For “DKDLIERDKQWWTAVRHNNPDRLSENVDENASVRIGDKEVHGRKDISRLIKHLRDTMHESYKIERVNKEEGRANIQASATRDHNGRPRTARVQVIVEAHNGRIKRIQVQFNS”, the protease stability score is -0.336.

For the sequence “DKDTEQHFADSMNQIIEQGNPKKAMKLADKDVQMQIGDKTYKGREEMMKQIKRFWKHVDEIRVKDVKVNDGQININVILDFNGKKVEVRIVIHVHNGKIHELRVDPKDKEQFEK”, the protease stability score was 1.09.

For the sequence “DKEALDEIEKAARENDWEKLAKMADPNVTATIGNYRVHGRSQFEKWARRVRQEVDHIEVKSIDVHGEKARVNYVIVFNGHNVTAQVQIEAHNGHITYMEVDYTDEDQVRHVKDMLS”, the protease stability score stood at 1.6.

Sequence “DKEALRVFEKMLQAQRTGNPQEVRKQVDENARFQVGDKTIQGRERFAEDVDRQRKNMRLDYKHIDNKDHNGQAQADAKVRVNVNGRPIEHSAQFHFSAHNGKLVQLHVQMDEDVRRQIEK” showed a protease stability score of -0.233.

In turn, “DKEASDHATRIAQTNNPQKAVDKADPDVKATYGNKVYNGKNQARDVAKQFDEHFDRVEVKSVDNDGETVRADVRARFNGKTMEFTFVIVMSNGHVKMLFIDVRNPEDQEDLDRLLT” returned a protease stability score of -0.188.

As to “DKEAVNIATRYMKAWEQGDSDTLMKLMDEDVRVHYGDKVLEGREDVSRDLKRLLDHAQFEIKHVTNKDNGSVVIVNFHMIVNVNGEPVEVKVVVHFHMHNGRIKQIVIRIDPKQLRQIKG”, the protease stability score is 1.41.

Regarding “DKEDAEKVMKTMMKVVEKGDPEQLMKVGSEGVEYQAGDLKAHGPEALKQVMDYLQKHGVRLEIKHAEVEGNTVRTYVEYKNGEETDTVEANADVDGGKIDRVEVEVGERAEKWLKHG”, the protease stability score was -0.57.

Turning to “DKEDVDHLERIMRKGDWDQLKDHADKDVTVVVGDRNIHGREKANNFLKRFKERVDHQEVRRLDVSGNEVVVDMVFNVNGRKIRATVVAVAHNGRLKEVVMRFTSEDDKRRATEAFD”, the protease stability score was determined as 0.454.

“DKEDVKKRAEELAEVLQTGDPRKMRDLADKDARLSIGDKEYHGREEISKWVDHMRRDVDHFKLDDVQASGNKMRLTFVLQHNGRRSKFDLDVKYSNGRAKELRFDRK” yielded a protease stability score of 0.267.

“DKEDWTRLTNVLEDNNEHQFQDMLDKDVKIDVGDKRIHGRERAKHFLRKYEREVDEITVYSINVSGDNVKVDRVAKHNGQSVRFVMVFRAHNGKVQEMRIEFRDERQKEIWNQLEQ” displayed a protease stability score of 0.231.

Consider “DKEEAKKILDKAVKAVENGNLEELKQMGKEGVEYELIDKKAHGPEVVHKVMEKLQRHGAELEFKRVQVEGDTVHTVVDYRVGDTEMRATAEATVQGGRIDKVRIEMSEEAQKTIKHG”, for which the protease stability score was -0.272.

The sequence “DKEEAQKVAEQMVKAIKNGNLDELADAGDDGVDYQVGDEKKRGREDIKRHVEKLQKAGVEMEVKEVRVEGNEVETKLTYKIGNTEVTVKVTVEVEGGKINRVEVRMSEEVEKTVRHG” showed a protease stability score of -0.193.

“DKEEARKVLEELIKAVESGNPKDLKKYGKDGVKYRLGDREAHGPEAVYKQFEQIHRQGVELRFEDTKVEGDKVTTRVTYRNGDETYTVQIHAEVRGGKIDRVEADLSDKAKEVVKHG” came in with a protease stability score of -0.066.

Turning to “DKEEFEKTAKTFMKVWTNGDPDQWKELMDPNARLQIGDKEWHGREEVREAITQFHDRVDHIEVKDLKVTEDHVRLIAVVRFNGREVKVTVNIHFENGRATHVENHFTDDDQLKRNLS”, the protease stability score was -0.084.

Sequence “DKEELQHLIRLEEHNDWDKFARQAPPNATLQVGDRVVHGREEAVKFAEKLKKRVDHISIESIDRRGEKLQIVYTMVVDGKRVKAVVVLRASNGRAQSVVFQARDPHDQQVIKENLS” showed a protease stability score of 0.178.

“DKEELSWAKKVLEKNNWESLAENADENAKVDVGDKRYSGREQVEHLMNQLRRRVDHVEYKHIDSKGDKLVADFQVVVNGREVKVRLQMNVHNGRVRHLTMEARNEDDKRFLKEMLD” gave a protease stability score of 1.3.

In turn, “DKEENHMFQQAFTVEWTGDPEKVNRLMDPNAKIEVGEKRVHGMDKYAREVKREHDDMRVDVRTYSNDVHNGEVDVKVNYVKNNNGRPRHVSQSIRAHASNGKVKSVQVTERG” yielded a protease stability score of -0.299.

In turn, “DKEEVEKIAREALEAAVKGDEDKLKTYLGPDVKYVLGDQEYQGQQVAELVMKLIKKDGARLQLETLKVEGNTVQAQYQFHVDGVTRKAHITMKVKGGRVDEWQVHIDDHAKEALKKG” displayed a protease stability score of 1.28.

Consider “DKEEVHKLKHLLRHGDFEKINKKADKDARMQIGDRVYHGREKMKKALEILQREVDDIRVDSIKVSGDRVSAEMHMEVNGRRYVFVVVIRATNGRVVSLKVKARSESQDEHLKNLVE”, for which the protease stability score was determined as 0.625.

Regarding “DKEEVQRIVEEMLKFVESGDIKKLVDHGKEGVRYRLGDEEAHGPEAIKKMVVKMKKVGLRIEVKEYQVEGDTATTKLKYQLGDTEDTVEVNAQAQGGRIDQVNADVDKTAVDMIKQG”, the protease stability score was 0.048.

In turn, “DKEHLKRMVETIIKILETGDPDKMKNLADENVRVEVGDKDVHGKDTLRKHIEEWRRQIDHLEVKSVRVKGNKASIHFVVRVNGTDKTVVVVFDIHNGKIKMVHYTDS” gave a protease stability score of 0.637.

For “DKEIKDLARQVLTAEKTGDPEQFKKLFDPNVHVEVGDKTVTGREEASREFKKSQQELRIDMKSVSVTVEGNSVDIEIHAHLKVNGRPIDMHFRIILTFHNGKVHHVQLQVSEDQLRKMSQ”, the protease stability score was 0.668.
